Experiments:
[1] = target: T1, human MSLN-R2-his protein (human, UniProt Q13421 391-486); assay: ELISA, antibody 1 nM
T1 construct: MSLN-R2 = Ser391-Asn486; also called hMSLN-R2-his; not shown: histidine tag

[2] = target: T2, human MSLN-R3-his protein (human, UniProt Q13421 487-598); assay: ELISA, antibody 1 nM
T2 construct: MSLN-R3 = Met487-Ser598; also called hMSLN-R3-his; not shown: histidine tag

[3] = target: T3, human MSLN-FL-his protein (human, UniProt Q13421 296-580); assay: ELISA, antibody 1 nM
T3 construct: also called hMSLN-FL-his; human MSLN full-length protein; not shown: histidine tag

[4] = target: T4, human MSLN-R1-his protein (human, UniProt Q13421 296-390); assay: ELISA, antibody 1 nM
T4 construct: MSLN-R1 = Glu296-Thr390; also called hMSLN-R1-his; not shown: histidine tag
T4 chain: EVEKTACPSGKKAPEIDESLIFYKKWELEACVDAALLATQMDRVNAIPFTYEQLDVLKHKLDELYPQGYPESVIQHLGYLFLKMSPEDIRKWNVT

[5] = target: T1, human MSLN-R2-his protein; assay: ELISA, antibody 1 nM; remark: listed apart in the source
[6] = target: T2, human MSLN-R3-his protein; assay: ELISA, antibody 1 nM; remark: listed apart in the source
[7] = target: T5, human MSLN-R3-3 polypeptide (purchased from GL Biochem, Cat. No. 406676) (human); assay: ELISA, antibody 1 nM
T5 construct: Printed as Val539-Val588; also called hMSLN-R3-3
T5 peptide: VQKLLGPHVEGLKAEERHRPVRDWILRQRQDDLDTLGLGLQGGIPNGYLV

[8] = target: T1, human MSLN-R2-his protein; assay: ELISA, antibody 10 nM
[9] = target: T4, human MSLN-R1-his protein; assay: ELISA, antibody 0.1 nM
[10] = target: T4, human MSLN-R1-his protein; assay: ELISA, antibody 100 nM
[11] = target: T1, human MSLN-R2-his protein; assay: ELISA, antibody 0.1 nM
[12] = target: T1, human MSLN-R2-his protein; assay: ELISA, antibody 100 nM
[13] = target: T2, human MSLN-R3-his protein; assay: ELISA, antibody 0.1 nM
[14] = target: T1, human MSLN-R2-his protein; assay: ELISA, antibody 0.01 nM
[15] = target: T2, human MSLN-R3-his protein; assay: ELISA, antibody 0.01 nM
[16] = target: T4, human MSLN-R1-his protein; assay: ELISA, antibody 0.001 nM
[17] = target: T1, human MSLN-R2-his protein; assay: ELISA, antibody 0.001 nM
[18] = target: T1, human MSLN-R2-his protein; assay: ELISA, antibody 0.0001 nM
[19] = target: T4, human MSLN-R1-his protein; assay: ELISA, antibody 0 nM (blank)
[20] = target: T1, human MSLN-R2-his protein; assay: ELISA, antibody 0 nM (blank)
[21] = target: T2, human MSLN-R3-his protein; assay: ELISA, antibody 0 nM (blank)
[22] = target: T6, human MSLN-FL-his protein (human, UniProt Q13421 296-580); assay: competitive ELISA on MSLN-FL-His; other antibody: NB148-13 (3.m1)
T6 construct: Made in HEK293E cells, purified on nickel column; also called hMSLN-FL-his; not shown: histidine tag

[23] = target: T6, human MSLN-FL-his protein; assay: competitive ELISA on MSLN-FL-His; other antibody: NB148-27 (3.m3)
[24] = target: T6, human MSLN-FL-his protein; assay: competitive ELISA on MSLN-FL-His; other antibody: NB148-46 (3.m5)
[25] = target: T6, human MSLN-FL-his protein; assay: competitive ELISA on MSLN-FL-His; other antibody: NB149-31 (3.m7)
[26] = target: T6, human MSLN-FL-his protein; assay: competitive ELISA on MSLN-FL-His; other antibody: NB149-34 (3.m8)
[27] = target: T6, human MSLN-FL-his protein; assay: competitive ELISA on MSLN-FL-His; other antibody: Tab107 (C) (1.m4)
[28] = target: T6, human MSLN-FL-his protein; assay: competitive ELISA on MSLN-FL-His; other antibody: Tab108 (R3) (3.m14)
[29] = target: T6, human MSLN-FL-his protein; assay: competitive ELISA on MSLN-FL-His; other antibody: Tab142 (R1) (3.m16)

T1 sequence (Q13421 other isoform, or with tags, fused parts or gaps): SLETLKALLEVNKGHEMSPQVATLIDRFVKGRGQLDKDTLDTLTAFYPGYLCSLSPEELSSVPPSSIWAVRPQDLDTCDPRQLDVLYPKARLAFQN
T2 sequence (Q13421 495-606): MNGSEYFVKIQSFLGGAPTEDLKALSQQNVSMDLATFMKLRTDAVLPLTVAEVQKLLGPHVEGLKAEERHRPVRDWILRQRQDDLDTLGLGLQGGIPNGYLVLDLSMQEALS

- OD450 nm [1]: 0.05
- OD450 nm [2]: 0.05
- OD450 nm [3]: 1.74
- OD450 nm [4]: 0.05
- OD450 nm [5]: 0.05
- OD450 nm [6]: 0.05
- OD450 nm [7]: 0.07
- OD450 nm [8]: 0.05
- OD450 nm [9]: 0.05
- OD450 nm [10]: 0.08
- OD450 nm [11]: 0.04
- OD450 nm [12]: 0.09
- OD450 nm [13]: 0.05
- OD450 nm [14]: 0.04
- OD450 nm [15]: 0.04
- OD450 nm [16]: 0.05
- OD450 nm [17]: 0.05
- OD450 nm [18]: 0.04
- OD450 nm [19]: 0.05
- OD450 nm [20]: 0.05
- OD450 nm [21]: 0.05
- inhibition rate [22]: 38%
- inhibition rate [23]: 1%
- inhibition rate [24]: 7%
- inhibition rate [25]: -10%
- inhibition rate [26]: -8%
- inhibition rate [27]: 65%
- inhibition rate [28]: 21%
- inhibition rate [29]: -9%
B1: Tab107 (YP3, hIgG1) (antibody, V domains shown)
VH: QEQLVESGGGLVQPGASLTLTCTASGIDFSRYYMCWVRQAPGKGLEGIACIYIGGSGSTYYASWAKGRFTISKASSTTVTLQMTSLTAADTATYFCARGTNLNYIFRLWGPGTLVTVSS
VL: DVVMTQTPSPVSAAVGGTVTIKCQASQSINNGLAWYQQKPGQPPRLLIYSASNLESGVPSRFKGSGSGTEFTLTISDLECDDAATYYCQCIWDGNSYVNAFGGGTEVVVRT
notes: also called YP3 human IgG1 antibody
